Measurements published in paper PMC8466755, “GPCR Pharmacological Profiling of Aaptamine from the Philippine Sponge Stylissa sp. Extends Its Therapeutic Potential for Noncommunicable Diseases” (Molecules, 2021).

Tests used:
[1] = target: delta opioid receptor (δ-OR, OPRD1); parameters: method as in PMID 27744679; conditions: calcium mobilization pathway; read-out: EC50 agonist, delta opioid receptor; cited from earlier work
CCR3 = target: T1, CCR3 (Homo sapiens, UniProt P51677); assay: PathHunter β-arrestin assay, positive allosteric modulation (PAM) mode; assay type: cell-based; conditions: control agonist; read-out: EC50 of positive control ligand
T1 sequence (P51677 1-355): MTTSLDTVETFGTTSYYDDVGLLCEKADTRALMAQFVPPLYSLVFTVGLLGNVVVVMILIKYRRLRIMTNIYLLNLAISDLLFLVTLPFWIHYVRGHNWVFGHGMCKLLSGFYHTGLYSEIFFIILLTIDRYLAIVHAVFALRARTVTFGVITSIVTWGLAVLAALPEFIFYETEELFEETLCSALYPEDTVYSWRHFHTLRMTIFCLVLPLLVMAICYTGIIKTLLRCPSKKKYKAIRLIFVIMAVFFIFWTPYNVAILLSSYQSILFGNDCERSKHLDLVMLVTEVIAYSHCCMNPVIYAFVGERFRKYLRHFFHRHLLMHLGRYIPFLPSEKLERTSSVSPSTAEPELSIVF
Protocol: (§1) Hit validation was performed by subjecting the aaptamine to an agonist, antagonist, and positive allosteric modulation (PAM) secondary screen utilizing thirteen GPCR biosensor assays (Arrestin) against the following targets: ADRA2A, ADRA2C, ADRB2, CCR1, CCR3, CXCR3, CXCR7, DRD2L, DRD2S, DRD4, HTR1E, OPRK1, and SSTR1. The assays were performed at 10-point concentrations using three-fold serial dilutions in duplicate. For all the assay formats, the final assay vehicle concentration was 1%.
(§2) For PAM assays, the cells were preincubated with the sample followed by agonist induction at the EC20 concentration. To the cells, 5 µL of 5X sample was added and incubated for 30 min at 37 °C or room temperature. Following the incubation period, 5 µL of the 6X EC20 agonist prepared in an assay buffer was added to the cells and incubated for 90 or 180 min at 37 °C or room temperature. The percent activity of aaptamine was calculated following this formula: % modulation = 100% × ((mean RLU of test sample − mean RLU of EC20 control)/(mean RLU of MAX control ligand − mean RLU of EC20 control)).

CCR1 = target: T2, CCR1 (Homo sapiens, UniProt P32246); assay: PathHunter β-arrestin assay, agonist mode; assay type: cell-based; conditions: dose-response, agonist mode
T2 sequence (P32246 1-355): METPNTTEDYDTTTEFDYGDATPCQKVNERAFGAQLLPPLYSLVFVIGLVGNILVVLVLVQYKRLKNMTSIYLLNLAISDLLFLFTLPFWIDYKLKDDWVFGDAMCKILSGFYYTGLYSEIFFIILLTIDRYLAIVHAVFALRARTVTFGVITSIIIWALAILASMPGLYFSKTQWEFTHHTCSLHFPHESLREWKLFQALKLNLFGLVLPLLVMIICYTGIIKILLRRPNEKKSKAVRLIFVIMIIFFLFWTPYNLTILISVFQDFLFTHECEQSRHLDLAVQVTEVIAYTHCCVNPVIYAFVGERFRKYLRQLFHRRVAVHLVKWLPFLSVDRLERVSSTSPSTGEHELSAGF
Protocol: Aaptamine (20 µM) was profiled in gpcrMAX panel biosensor assays (in agonist and antagonist modes) against a panel of 168 GPCRs. The assay was performed by DiscoverX Corporation (Fremont, CA) using PathHunter β -arrestin enzyme fragment complementation (EFC) technology, in a similar way to that described elsewhere. The PathHunter cell lines were taken from freezer stocks according to standard procedures. A total of 20 µL of cells were seeded into white 384-well plates and incubated at 37 °C for the appropriate time prior to testing.
For agonist determination, aaptamine was incubated with PathHunter cell lines to induce a response. To increase the concentration, intermediate dilution from 20 µM of aaptamine was performed to generate a 5X sample in an assay buffer. Then, 5 µL of 5X sample was added to the plate with PathHunter cells and incubated for 90 or 180 min at 37 °C or room temperature. The percentage activity of aaptamine was calculated following this formula: % activity = 100% × (mean RLU of test sample − mean RLU of vehicle control)/(mean MAX control ligand − mean RLU of vehicle control).
as §1

CXCR3 = target: T3, CXCR3 (Homo sapiens, UniProt P49682); assay: PathHunter β-arrestin assay, positive allosteric modulation (PAM) mode; assay type: cell-based; conditions: control agonist; read-out: EC50 of positive control ligand
T3 sequence (P49682 1-368): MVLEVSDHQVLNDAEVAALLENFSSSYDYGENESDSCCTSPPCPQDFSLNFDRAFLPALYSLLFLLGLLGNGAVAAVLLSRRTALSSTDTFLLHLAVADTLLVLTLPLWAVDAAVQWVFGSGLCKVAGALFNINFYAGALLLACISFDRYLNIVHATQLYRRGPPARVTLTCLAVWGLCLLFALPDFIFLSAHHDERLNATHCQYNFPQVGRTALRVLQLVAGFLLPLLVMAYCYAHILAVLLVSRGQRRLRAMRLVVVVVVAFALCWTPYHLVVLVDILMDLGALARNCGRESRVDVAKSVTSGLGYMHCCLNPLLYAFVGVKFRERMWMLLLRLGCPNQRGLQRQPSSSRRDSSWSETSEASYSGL
Protocol: as §1, §2

**Q.** Which EC50 [1] does the source give for `COc1cc2ccnc3c2c(c1O)NC=C3` [9-demethyl aaptamine] here?
**A.** Its EC50 is 4100 nM.

**Q.** Which EC50 [1] does the source give for `COC1=Cc2ccnc3ccnc(c23)C1=O` [demethyl(oxy)-aaptamine] here?
**A.** Its EC50 is 2300 nM.

**Q.** With “CCL3: ligand used as positive control for CCR3” as the compound, how does the EC50 (CCR3) read?
**A.** The EC50 was 3 nM.

**Q.** For “CCL13: ligand used as positive control for CCR1”, which EC50 (CCR1) is on record?
**A.** The EC50 was 26 nM.

**Q.** For “CXCL11: ligand used as positive control for CXCR3”, which EC50 (CXCR3) is on record?
**A.** The EC50 was 6.7 nM.
